Results on three molecules are retold here after PMC8625570, “Selectivity Determinants of RHO GTPase Binding to IQGAPs” (International Journal of Molecular Sciences, 2021).

Several values for one entry are separate records, joined by “and”; a condition that tells them apart may be missing. Equal values may be shown once.

B1: IQGAP2^C795 (C-terminal fragment of IQGAP2) (domain or fragment, human, UniProt Q13576 780-1575, looked up)
chain: PLTVIRKFVYLLDQSDLDFQEELEVARLREEVVTKIRANQQLEKDLNLMDIKIGLLVKNRITLEDVISHSKKLNKKKGGEMEILNNTDNQGIKSLSKERRKTLETYQQLFYLLQTNPLYLAKLIFQMPQNKSTKFMDTVIFTLYNYASNQREEYLLLKLFKTALEEEIKSKVDQVQDIVTGNPTVIKMVVSFNRGARGQNTLRQLLAPVVKEIIDDKSLIINTNPVEVYKAWVNQLETQTGEASKLPYDVTTEQALTYPEVKNKLEASIENLRRVTDKVLNSIISSLDLLPYGLRYIAKVLKNSIHEKFPDATEDELLKIVGNLLYYRYMNPAIVAPDGFDIIDMTAGGQINSDQRRNLGSVAKVLQHAASNKLFEGENEHLSSMNNYLSETYQEFRKYFKEACNVPEPEEKFNMDKYTDLVTVSKPVIYISIEEIISTHSLLLEHQDAIAPEKNDLLSELLGSLGEVPTVESFLGEGAVDPNDPNKANTLSQLSKTEISLVLTSKYDIEDGEAIDSRSLMIKTKKLIIDVIRNQPGNTLTEILETPATAQQEVDHATDMVSRAMIDSRTPEEMKHSQSMIEDAQLPLEQKKRKIQRNLRTLEQTGHVSSENKYQDILNEIAKDIRNQRIYRKLRKAELAKLQQTLNALNKKAAFYEEQINYYDTYIKTCLDNLKRKNTRRSIKLDGKGEPKGAKRAKPVKYTAAKLHEKGVLLDIDDLQTNQFKNVTFDIIATEDVGIFDVRSKFLGVEMEKVQLNIQDLLQMQYEGVAVMKMFDKVKVNVNLLIYLLNKKFYGK
notes: IQGAP2, aa 780-1575; also called IQGAP2^C975
B2: IQGAP1^C794 (C-terminal half of human IQGAP1 with the GRD, RGCT and CT domains) (domain or fragment, UniProt P46940 863-1657, looked up)
chain: DPPMVVVRKFVHLLDQSDQDFQEELDLMKMREEVITLIRSNQQLENDLNLMDIKIGLLVKNKITLQDVVSHSKKLTKKNKEQLSDMMMINKQKGGLKALSKEKREKLEAYQHLFYLLQTNPTYLAKLIFQMPQNKSTKFMDSVIFTLYNYASNQREEYLLLRLFKTALQEEIKSKVDQIQEIVTGNPTVIKMVVSFNRGARGQNALRQILAPVVKEIMDDKSLNIKTDPVDIYKSWVNQMESQTGEASKLPYDVTPEQALAHEEVKTRLDSSIRNMRAVTDKFLSAIVSSVDKIPYGMRFIAKVLKDSLHEKFPDAGEDELLKIIGNLLYYRYMNPAIVAPDAFDIIDLSAGGQLTTDQRRNLGSIAKMLQHAASNKMFLGDNAHLSIINEYLSQSYQKFRRFFQTACDVPELQDKFNVDEYSDLVTLTKPVIYISIGEIINTHTLLLDHQDAIAPEHNDPIHELLDDLGEVPTIESLIGESSGNLNDPNKEALAKTEVSLTLTNKFDVPGDENAEMDARTILLNTKRLIVDVIRFQPGETLTEILETPATSEQEAEHQRAMQRRAIRDAKTPDKMKKSKSVKEDSNLTLQEKKEKIQTGLKKLTELGTVDPKNKYQELINDIARDIRNQRRYRQRRKAELVKLQQTYAALNSKATFYGEQVDYYKSYIKTCLDNLASKGKVSKKPREMKGKKSKKISLKYTAARLHEKGVLLEIEDLQVNQFKNVIFEISPTEEVGDFEVKAKFMGVQMETFMLHYQDLLQLQYEGVAVMKLFDRAKVNVNLLIFLLNKKFYGK
B3: CDC42 (aa 1-178) (natural protein)
chain: not shown

In data set [1] the target is T1, RAC1 (aa 1-179) (human, UniProt P63000 1-179). The experiment in a line: SEC; analytical SEC, Superdex 200 10/300, 30 mM Tris/HCl pH 7.5, 150 mM NaCl, 5 mM MgCl2; IQGAP1^C794 and IQGAP2^C795 alone or mixed with CDC42•GppNHp or RAC1•GppNHp; fractions on Coomassie-stained SDS-PAGE; MW from a calibration curve. Further details: reference not given here. To be noted: both partners purified. (Size exclusion chromatography separates by hydrodynamic size, large species first.)

The target in data set [2] is B3. Described as above. Set-up: reference not given here. The note with it: both partners purified.
Data set [3] concerns the molecule itself. Described as above. Further details: reference not given here.
Data set [4] deals with T2, RAC2 (aa 1-192) (human, UniProt P15153 1-192). The experiment in a line: stopped-flow fluorescence spectrometry; association (kobs): 2 µM IQGAP1^C794 or IQGAP2^C795 mixed with 0.2 µM mGppNHp-bound RHO GTPase; 30 mM Tris-HCl pH 7.5, 10 mM K2HPO4/KH2PO4 pH 7.4, 2 mM MgCl2, 3 mM DTT, 25 °C. To be noted: both partners purified.
Data set [5] deals with T3, RAC3 (aa 1-192) (human, UniProt P60763 1-192). Described as above. The note with it: both partners purified.
In data set [6] the target is T1, RAC1 (aa 1-179). The experiment in a line: cell-based or functional assay.
The target of data set [7] is B3. The experiment in a line: stopped-flow fluorescence spectrometry; kon from 0.2 µM mGppNHp-bound RHO GTPase with 2-8 µM IQGAP1^C794; koff by displacing with 10 µM unlabeled RAC1-GppNHp from 2 µM IQGAP1^C794 with 0.2 µM GTPase; Kd calculated from the rate constants; 25 °C. The note with it: both partners purified.
Data set [8] deals with T2, RAC2 (aa 1-192). Described as above. The note with it: both partners purified.
Another data set deals with RAC1 T25K/N26D (human, UniProt P63000 1-179, T25K | N26D). Described as above. To be noted: both partners purified.
Data set [9] deals with T3, RAC3 (aa 1-192). Described as above. The note with it: both partners purified.
Another data set deals with RAC1 M45E/N52E (human, UniProt P63000 1-179, M45E | N52E). Described as above. To be noted: both partners purified.
The target of another data set is RAC1 Q74D (human, UniProt P63000 1-179, Q74D). Described as above. To be noted: both partners purified.
In data set [10] the target is B2. The experiment in a line: stopped-flow fluorescence spectrometry; association (kobs): 2 µM IQGAP1^C794 or IQGAP2^C795 mixed with 0.2 µM mGppNHp-bound RHO GTPase; 30 mM Tris-HCl pH 7.5, 10 mM K2HPO4/KH2PO4 pH 7.4, 2 mM MgCl2, 3 mM DTT, 25 °C. To be noted: both partners purified.
Data set [11] deals with B1. Described as above. The note with it: both partners purified.

Sequence of CDC42 (aa 1-178) (P60953 1-178): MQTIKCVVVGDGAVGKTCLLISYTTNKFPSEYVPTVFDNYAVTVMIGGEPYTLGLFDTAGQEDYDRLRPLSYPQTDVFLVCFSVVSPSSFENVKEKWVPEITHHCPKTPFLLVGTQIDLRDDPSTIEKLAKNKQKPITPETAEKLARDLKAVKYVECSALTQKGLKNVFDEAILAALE

Broadly, the stoichiometry N is a count of units in the complex or per binding partner. In the case of B1, the “stoichiometry N” value in the data set with RAC1 (aa 1-179) [1] is 1 IQGAP per GTPase (printed as 2:2); with CDC42 (aa 1-178) [2], 1 IQGAP per GTPase (printed as 2:2); in data set [3] it was 3 and 4. Further, the binding result in the data set with RAC2 (aa 1-192) [4] and in the data set with RAC3 (aa 1-192) [5] was “binds” throughout.

A word on the Kd: it is a measure of binding affinity in units of concentration. In the case of B2, in the data set with RAC1 (aa 1-179) [6], the “p50^GAP-stimulated GTP hydrolysis of tamraGTP-bound RAC1 (0.2 µM RAC1, 10 µM p50^GAP) in the presence of IQGAP1^C794” value turned out to be 25 fold. Moreover, the “stoichiometry N” value with RAC1 (aa 1-179) [1] is 1 IQGAP per GTPase (printed as 2:2); with CDC42 (aa 1-178) [2], 1 IQGAP per GTPase (printed as 2:2); in data set [3], 2. For the same molecule, the “fold higher binding affinity than with RAC1” value with CDC42 (aa 1-178) [7] was 3 fold. Besides, in the data set with RAC2 (aa 1-192) [8], the Kd is 27 nM. The “fold faster kon than with RAC1” value with RAC2 (aa 1-192) [8] was 4 fold. The “fold lower Kd than with RAC1” value in the data set with RAC2 (aa 1-192) [8] was 34 fold. Further, the “fold lower koff than with RAC1” value with RAC2 (aa 1-192) [8] is 8 fold. For the same molecule, the binding result with RAC1 T25K/N26D, with RAC3 (aa 1-192) [9], with RAC1 M45E/N52E and in the data set with RAC1 Q74D was “binds” each time.

For the molecule B3, the “stoichiometry N” value in data set [3] was 2. Also, the binding result in data set [10] and in data set [11] was “binds” each time.
